Article PMC7181697 (2020)

B1: cREV1 CTD (chimeric REV1 CTD: POL κ RIR fused to the N-terminus of REV1 CTD) (other)
chain: SHKKSFFDKKRSERKWGLSSLQSDPAGCVRPPAPNLAGAVEFNDVKTLLREWITTISDPMEEDILQVVKYCTDLIEEKDLEKLDLVIKYMKRLMQQSVESVWNMAFDFILDNVQVVLQQTYGSTLKVT
B2: SHLD3(1–82) with C-terminal His6-tag (domain or fragment)
chain: MTTEVILHYRPCESDPTQLPKIAEKAIQDFPTRPLSRFIPWFPYDGSKLPLRPKRSPPVISEEAAEDVKQYLTISEHDAKSH
B3: REV3(1847-1906) (domain or fragment)
chain: MLTPTPDSSPRSTSSPSQSKNGSFTPRTANILKPLMSPPSREEIMATLLDHDLSETIYQE

Assays:
Experiment in all cases: ITC
[1] = molecular target: REV7^WT-REV3(1871–2021) (human, UniProt Q9UI95 1-211; O60673 1871-2021)
[2] = molecular target: REV7^Y63A (human, UniProt Q9UI95 1-211, Y63A)
[3] = molecular target: REV7^W171A (human, UniProt Q9UI95 1-211, W171A)
[4] = molecular target: REV7^K129A (human, UniProt Q9UI95 1-211, K129A)
Chain of REV7^K129A (Q9UI95 whole entry K129A): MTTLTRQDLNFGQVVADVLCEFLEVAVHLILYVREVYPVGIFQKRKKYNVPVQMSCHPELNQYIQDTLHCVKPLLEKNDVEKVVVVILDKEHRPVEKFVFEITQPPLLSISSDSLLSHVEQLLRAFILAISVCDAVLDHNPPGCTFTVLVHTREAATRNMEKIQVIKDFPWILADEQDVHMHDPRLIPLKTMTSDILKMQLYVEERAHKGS

Chain of REV7^W171A (Q9UI95 whole entry W171A): as the sequence (Q9UI95 whole entry K129A) above, with A129K, W171A counted along it
Chain of REV7^WT-REV3(1871–2021) (Q9UI95 whole entry, chain 1 of 2): as the sequence (Q9UI95 whole entry K129A) above, with A129K counted along it
Chain of REV7^WT-REV3(1871–2021) (O60673 1871-2021, chain 2 of 2): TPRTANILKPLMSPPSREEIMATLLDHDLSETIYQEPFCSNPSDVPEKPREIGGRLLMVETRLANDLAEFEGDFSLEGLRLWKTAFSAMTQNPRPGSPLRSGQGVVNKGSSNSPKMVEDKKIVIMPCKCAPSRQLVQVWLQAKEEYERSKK
Chain of REV7^Y63A (Q9UI95 whole entry Y63A): as the sequence (Q9UI95 whole entry K129A) above, with Y63A, A129K counted along it

Binder | Kd [1] | Kd [2] | Kd [3] | Kd [4]
B1 | 1600 nM | – | – | –
B2 | – | 160 nM | 170 nM | 4.8 nM
B3 | – | – | – | 7.3 nM
